Assays:
[1] = target: Dye-type peroxidase Aa from Streptomyces lividans (Streptomyces lividans); assay: crystal structure; serial femtosecond crystallography at room temperature, microcrystals on silicon fixed-target chips, SACLA beamline BL2 EH3; two monomers (homodimer) in the crystallographic asymmetric unit
[2] = target: T1, dehaloperoxidase B (DHP-B; DHP) (Amphitrite ornata, UniProt Q9NAV7); assay: SFX crystal structure, room temperature, […] A; type: binding; conditions: 3-5 min, distal heme pocket, not bound to iron
T1 construct: homodimer in the asymmetric unit

[3] = target: the molecule itself; assay: crystal structure; serial femtosecond crystallography at room temperature, microcrystals on silicon fixed-target chips, SACLA beamline BL2 EH3; two monomers (homodimer) in the crystallographic asymmetric unit

**Q.** For “Dye-type peroxidase Aa from Streptomyces lividans (enzyme)”, which stoichiometry N [1] is on record?
**A.** 2

**Q.** Brc1ccc2[nH]ccc2c1 [5-bromoindole] was tested. Which “SFX crystal structure, room temperature, 1.85 A” value ([2]; crystals pH 6.0, soaked 50 mM, lower occupancy in second monomer) did it give?
**A.** the 5BR complex was consistent with a computationally hypothesized binding site

**Q.** How did the “SFX crystal structure, room temperature, 1.85 A” value ([2]; crystals pH 6.0, soaked 5 mM, near-full occupancy in monomer B) turn out when Oc1ccc(Cl)cc1Cl [2,4-dichlorophenol] was run?
**A.** DCP exhibited a binding site that was virtually identical to those previously observed

B1: Dehaloperoxidase B from Amphitrite ornata (enzyme)
chain: GFKQDIATLRGDLRTYAQDIFLAFLNKYPDEKRNFKNYVGKSDQELKSMAKFGDHTEKVFNLMMEVADRATDCVPLASDASTLVQMKQHSGLTTGNFEKLFVALVEYMRASGQSFDSQSWDRFGKNLVSALSSAGMK
notes: Dehaloperoxidase B (DHP-B), heme peroxidase from the marine annelid Amphitrite ornata; Heme protein; Crystallised with the small ligands DCP or 5BR soaked in; also called DHP-B; DHP; source: expressed and purified as described previously (McCombs, Moreno-Chicano et al., 2017)
**Q.** With B1 as the molecule, how does the “stoichiometry N” value [3] read?
**A.** 2

Source: PMC6830213, “High-throughput structures of protein–ligand complexes at room temperature using serial femtosecond crystallography” (IUCrJ, 2019)
